“Also recorded” adds a separate entry of the source.
What was measured:
SUMO hydrolase Ulp1 = biological target: T1, SUMO hydrolase Ulp1 (Saccharomyces cerevisiae, UniProt Q02724); experiment: In vitro cleavage of purified SUMO fusion proteins by SUMO hydrolase Ulp1; assay type: biochemical, yeast; conditions: for In vitro cleavage by Ulp1 / SUMO hydrolase: purified fusion protein from E. coli
T1 construct: C-terminal His-tagged SUMO hydrolase/protease Ulp (403–621)p (21) (27) was expressed from pET24d; His tag (C); made in house; host or cells: E. coli Rosetta (DE3) pLysS, vector pET24d
T1 sequence (Q02724 403-621): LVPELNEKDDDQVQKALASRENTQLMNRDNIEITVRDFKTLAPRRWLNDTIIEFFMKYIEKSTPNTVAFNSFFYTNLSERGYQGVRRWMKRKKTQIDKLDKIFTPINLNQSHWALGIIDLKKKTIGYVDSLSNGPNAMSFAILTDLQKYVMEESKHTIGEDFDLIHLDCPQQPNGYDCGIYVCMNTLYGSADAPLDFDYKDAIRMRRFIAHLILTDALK

E. coli [1] = experiment: Soluble versus insoluble fraction of fusion proteins expressed in E. coli; assay type: cell-based
Experimental: E. coli were harvested by mild centrifugation and washed once with PBS buffer. Cells were resuspended in 4 ml of PBS and ruptured by several pulses of sonication. Unbroken cells were removed by mild centrifugation (5 min at 1500×g) and supernatants were sonicated again to ensure complete cell lysis. An aliquot (5 μl) was mixed with 2% SDS to ensure that no viscosity is detected owing to lysis of unbroken cells. After ensuring that no unbroken cells remained in the lysate, insoluble material consisting of cell walls, inclusion bodies and membrane fragments was sedimented by centrifugation (18,000×g for 10 min). The supernatant was considered “Soluble fraction”.
The pellets were washed from any remaining soluble proteins, lipids and peptidoglycan as follows. Pellets were resuspended in 600 μl of PBS and to the suspensions 600 μl of solution containing 3 M urea and 1% Tri ton X100 was added. The suspension was briefly vortexed and insoluble material was collected by centrifugation as above. The PBS/Urea/Triton wash was repeated two more times to ensure complete removal of soluble proteins. The washed pellets, designated as “insoluble fraction,” consisted primarily of inclusion bodies formed by over expressed proteins. Approximately 10 μg of protein from each fraction was resolved on 12% SDS-PAGE minigels and stained with Coomassie Brilliant Blue.
Human nuclear receptor proteins, such as steroid receptors, contain ligand-binding domains. These proteins have proven hard to express in soluble form in E. coli. […] The ligand-binding domain of LXR was expressed as SUMO fusion in Rosetta plysS cell at 20° C. or 37° C. and the pattern of soluble and insoluble protein was analyzed. […] Further proof that SUMO promotes solubility of previously insoluble proteins was gained by expressing MAPKAP2 kinase as a SUMO-fusion in E. coli. […] Numbers at the top of the gel, 0.1, 0.25 and 0.5 refer to the mM concentration of inducer IPTG, in the culture. The original induced culture (I), supernatant from lysed cells (S) and resuspended pellet (P) were analyzed on 12% SDS-PAGE. […] Although induction at 37° C. allows greater degree of expression, more than 50% of the kinase is still insoluble under these conditions. Cleavage of SUMO-MAPKKAP2 kinase by SUMO hydrolase is described in Example III. Also see FIG. 18.

E. coli [2] = experiment: GFP fluorescence in soluble fractions of E. coli; assay type: cell-based; conditions: 37° C., approx. 0.1 mg soluble protein, Ex 485 nm/Em 510 nm
Experimental: GFP fluorescence was measured in soluble fractions (approx. 0.1 mg of soluble protein in a final volume of 40 μl) using Fluoroscan Accent FL fluorometer (LabSystems) with Excitation 485 nm/Emission 510 nm filter set with the exposure set to 40 sec. The data are presented in Arbitrary Units (AU).
The design and construction of all the UBL E. coli expression vectors has been described above. The DNA sequences, accession numbers of the UBL-GFP fusion proteins, and translation frames are shown FIGS. 25–32. […] Un-fused GFP is generally poorly expressed in E. coli. […] Induced cells were broken by sonication and soluble proteins were analyzed on SDS-polyacrylamide gels. […] To determine if the fusion proteins were folded correctly, we determined the fluorescence properties of proteins in the soluble fraction.

Ulp1 Hydrolase = biological target: T2, Ulp1 Hydrolase (Saccharomyces cerevisiae, UniProt Q02724); experiment: In vitro Ulp1 cleavage of His6SUMO-GFP under various additives/conditions; assay type: biochemical, yeast; conditions: 4 to 37° C.
T2 construct: C-terminal His-tagged SUMO hydrolase/protease Ulp (403–621)p (21) (27) was expressed from pET24d; His tag (C); made in house; host or cells: E. coli Rosetta (DE3) pLysS, vector pET24d
T2 sequence (Q02724 403-621): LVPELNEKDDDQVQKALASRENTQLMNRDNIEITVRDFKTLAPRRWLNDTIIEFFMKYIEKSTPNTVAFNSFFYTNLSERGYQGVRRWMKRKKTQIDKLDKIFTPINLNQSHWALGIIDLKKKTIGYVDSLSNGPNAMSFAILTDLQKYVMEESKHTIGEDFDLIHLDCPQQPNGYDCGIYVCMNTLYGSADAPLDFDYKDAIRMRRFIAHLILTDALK
Experimental: Ni-NTA purified His6SUMO-GFP was incubated with Ulp1 under the indicated conditions for one hour at room temperature unless indicated otherwise. Low molecular weight markers (LMW) are also provided.
Ni-NTA purified His6SUMO-GFP was incubated with Ulp1 and 10 mM of various protease inhibitors for 1 hour at room temperature. Lane markers: Norm is addition of Ulp1 and N-ethymaleimide (NEM) to the substrate at the same time, Pre is the incubation of Ulp1 with NEM prior to the addition of substrate, +Ve is the absence of any inhibitor, −Ve is in the absence of Ulp1, lane 1 is with E-64, lane 2 is with EDTA, lane 3 is with leupeptin, lane 4 is with NEM, lane 5 is with pepstatin, lane 6 is with TLCK. Low molecular weight markers (LMW) are also provided.
The effects of various additives/conditions and temperature upon the in vitro cleavage reaction were determined as follows: His6smt3MeGFP was expressed from pET24d in Rosetta (DE3) pLysS (Novagen). The recombinant protein was purified as before using Ni-NTA agarose (Qiagen) and then buffer exchanged into 20 mM Tris-HCl pH 8.0, 150 mM NaCl and 5 mM β-mercaptoethanol using a PD-10 column (AP Biotech). […]

B1: β-GUS: SUMO fusion of 65 KDa E. coli β-glucuronidase (SEQ ID NO: 23) (protein)
chain: MGHHHHHHGSDSEVNQEAKPEVKPEVKPETHINLKVSDGSSEIFFKIKKTTPLRRLMEAFAKRQGKEMDSLRFLYDGIRIQADQTPEDLDMEDNDIIEAHREQIGGMEFMLRPVETPTREIKKLDGLWAFSLDRENCGIDQRWWESALQESRAIAVPGSFNDQFADADIRNYAGNVWYQREVFIPKGWAGQRIVLRFDAVTHYGKVWVNNQEVMEHQGGYTPFEADVTPYVIAGKSVRITVCVNNELNWQTIPPGMVITDENGKKKQSYFHDFFNYAGIHRSVMLYTTPNTWVDDITVVTHVAQDCNHASVDWQVVANGDVSVELRDADQQVVATGQGTSGTLQVVNPHLWQPGEGYLYELCVTAKSQTECDIYPLRVGIRSVAVKGQQFLINHKPFYFTGFGRHEDADLRGKGFDNVLMVHDHALMDWIGANSYRTSHYPYAEEMLDWADEHGIVVIDETAAVGFNLSLGIGFEAGNKPKELYSEEAVNGETQQAHLQAIKELIARDKNHPSVVMWSIANEPDTRPQVHGNISPLAEATRKLDPTRPITCVNVMFCDAHTDTISDLFDVLCLNRYYGWYVQSGDLETAEKVLEKELLAWQEKLHQPIIITEYGVDTLAGLHSMYTDMWSEEYQCAWLDMYHRVFDRVSAVVGEQVWNFADFATSQGILRVGGNKKGIFTRDRKPKSAAFLLQKRWTGMNFGEKPQQGGKQ
Which “In vitro cleavage by SUMO hydrolase after addition of urea” value (SUMO hydrolase Ulp1; 2M urea, 20 min at room temperature) does the source give for B1 here?
Its value is “complete cleavage”.

What about the “In vitro cleavage by Ulp1 / SUMO hydrolase” value (SUMO hydrolase Ulp1) of the same molecule?
The value was “partially resistant to cleavage”.

B2: SUMO-LXR: human liver X receptor ligand binding domain as SUMO fusion (SEQ ID NO: 25) (protein)
chain: MGHHHHHHGSDSEVNQEAKPEVKPEVKPETHINLKVSDGSSEIFFKIKKTTPLRRLMEAFAKRQGKEMDSLRFLYDGIRIQADQTPEDLDMEDNDIIEAHREQIGGMSLWLGAPVPDIPPDSAVELWKPGAQDASSQAQGGSSCILREEARMPHSAGGTAGVGLEAAEPTALLTRAEPPSEPTEIRPQKRKKGPAPKMLGNELCSVCGDKASGFHYNVLSCEGCKGFFRRSVIKGAHYICHSGGHCPMDTYMRRKCQECRLRKCRQAGMREECVLSEEQIRLKKLKRQEEEQAHATSLPPRRSSPPQILPQLSPEQLGMIEKLVAAQQQCNRRSFSDRLRVTPWPMAPDPHSREARQQRFAHFTELAIVSVQEIVDFAKQLPGFLQLSREDQIALLKTSAIEVMLLETSRRYNPGSESITFLKDFSYNREDFAKAGLQVEFINPIFEFSRAMNELQLNDAEFALLIAISIFSADRPNVQDQLQVERLQHTYVEALHAYVSIHHPHDRLMFPRMLMKLVSLRTLSSVHSEQVFALRLQDKKLPPLLSEIWDVHE
How did the “Fraction of protein solublized by SUMO fusion” value (E. coli [1]; induced at 20° C.) turn out when B2 was run?
The value was “about 40%”.

And the “Solubility of fusion protein” value (E. coli [1]; induced at 37° C.)?
Its value is “hardly any SUMO-LXR was soluble”.

B3: SUMO kinase: MAPKAP2 kinase expressed as a SUMO-fusion in E. coli (SEQ ID NO: 29) (protein)
chain: MGHHHHHHGSDSEVNQEAKPEVKPEVKPETHINLKVSDGSSEIFFKIKKTTPLRRLMEAFAKRQGKEMDSLRFLYDGIRIQADQTPEDLDMEDNDIIEAHREQIGGMQFHVKSGLQIKKNAIIDDYKVTSQVLGLGINGKVLQIFNKRTQEKFALKMLQDCPKARREVELHWRASQCPHIVRIVDVYENLYAGRKCLLIVMECLDGGELFSRIQDRGDQAFTEREASEIMKSIGEAIQYLHSINIAHRDVKPENLLYTSKRPNAILKLTDFGFAKETTSHNSLTTPCYTPYYVAPEVLGPEKYDKSCDMWSLGVIMYILLCGYPPFYSNHGLAISPGMKTRIRMGQYEFPNPEWSEVSEEVKMLIRNLLKTEPTQRMTITEFMNHPWIMQSTKVPQTPLHTSRVLKEDKERWEDVKEEMTSALATMRVDYEQIK
Which results are given for B3?
In vitro cleavage by Ulp1 / SUMO hydrolase (SUMO hydrolase Ulp1): efficiently cleaved; Soluble form as fusion to SUMO (E. coli [1]; as summarised in Example III for FIG. 8): 95%; Soluble fraction of fusion protein (E. coli [1]; induced at 20° C. with 0.25 mM IPTG): 90%; Insoluble fraction of fusion protein (E. coli [1]; induction at 37° C.): more than 50%

B4: Hub1-GFP (protein)
chain: MGHHHHHHGSDSEVNQEAKPEVKPEVKPETHINLKVSDGSSEIFFKIKKTTPLRRLMEAFAKRQGKEMDSLRFLYDGIRIQADQAPEDLDMEDNDIIEAHREQIGG
With B4 as the molecule, how does the “GFP fluorescence of soluble fraction (correct folding)” value (E. coli [2]) read?
The value was “able to fluoresce”.

And the “Solubility of UBL-GFP fusion (soluble panel of stained gel)” value (E. coli [1]; 37° C., FIG. 4A)?
The value was “able to solublize the GFP”.

B5: Ulp1: C-terminal His-tagged yeast SUMO hydrolase/protease Ulp (403–621) expressed in E. coli (protein, UniProt Q02724 403-621, looked up, fragment)
chain: LVPELNEKDDDQVQKALASRENTQLMNRDNIEITVRDFKTLAPRRWLNDTIIEFFMKYIEKSTPNTVAFNSFFYTNLSERGYQGVRRWMKRKKTQIDKLDKIFTPINLNQSHWALGIIDLKKKTIGYVDSLSNGPNAMSFAILTDLQKYVMEESKHTIGEDFDLIHLDCPQQPNGYDCGIYVCMNTLYGSADAPLDFDYKDAIRMRRFIAHLILTDALK
modifications: C-terminal His tag
notes: C-terminal His-tagged yeast SUMO hydrolase/protease Ulp (403–621) expressed in E. coli
For B5, which “Effect of temperature on Ulp1 hydrolase activity” value (Ulp1 Hydrolase) is on record?
Its value is “extremely active at 37 °C as well as at 4 °C; also recorded: Ulp1 is active over a broad range of temperatures,”.

Reference: patent US7220576B2, “Methods and compositions for protein expression and purification” (Lifesensors, Inc., priority 2002, dated 2007)
